The target in test [1] is T1, E. coli-expressed recombinant cynomolgus IL-13 (cynomolgus, UniProt Q5I6E4 21-132 (Macaca thibetana entry)).
T1 construct: also called cyno IL13 (CA); cIL-13
T1 chain: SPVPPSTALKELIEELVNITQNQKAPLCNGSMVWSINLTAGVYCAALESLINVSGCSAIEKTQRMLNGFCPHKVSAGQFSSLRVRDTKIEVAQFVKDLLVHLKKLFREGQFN
Kind of test: BIAcore analysis 1, antibody captured, IL-13 in solution. As to the method: (§1) Completed for both human and cynomolgus IL-13 (E. coli-expressed protein). The quoted KD values are the average from 5 different IL-13 concentration curves (done in triplicate). Note that mass transfer issues were apparent in this analysis and that a modified experimental protocol (to correct for this issue) has been completed in analysis 4 (where no mass transfer issues were present).
(§2) The kinetics analysis was performed on a Biacore 3000 machine, using an antibody capture method. Briefly, for the chimeric 6A1 and humanised antibody constructs Protein A capture was used, whilst for the parental murine 6A1 antibody, capture was by a anti-mouse Fc antibody supplied by Biacore. Briefly, the method is as follows, the capture ligand was immobilised to a CM5 Biosensor chip by primary amine coupling in accordance with Biacore standard protocols and using the reagents supplied in Biacores' primary amine coupling kit. The method involves activation CM5 sensor surface by passing a solution of 50 mM N-hydroxy-succinimide (NHS) and 200 mM N-ethyl-N′-dimethylaminopropyl […] (EDC) over the surface. Then, the capture ligand (dissolved in acetate buffer pH5 or pH4.5) was coupled to the activated sensor surface after which any still activated esters were blocked by an injection of 1M ethanolamine hydrochloride, pH8.5.
(§3) The candidate antibody was then passed over the Protein A or anti-mouse Fc antibody surface, depending on whether it was human or mouse in origin and captured. Once a stable binding signal was seen IL13 was passed over the captured antibody surface at various defined concentrations. The subsequent binding curves were analysed with Biacore analysis software BIAeval v4.1 to determine kinetics. The experiments were carried out using Biacore HBS-EP buffer.

Test [2] deals with T2, E. coli-expressed recombinant human IL-13 (human, UniProt P35225 35-146).
T2 construct: Untagged E. coli-expressed human IL-13; also called hIL-13; human IL13 (CA)
Described as above. As to the method: as §1, §2, §3

The target of test [3] is T1, E. coli-expressed recombinant …. Kind of test: cynomolgus IL-13 binding sandwich ELISA. For orientation: In an ELISA, binding on a coated surface is turned into a signal by an enzyme label.
Test [4] has as its target T3, E. coli-expressed recombinant det-1 tagged human IL-13 (human, UniProt P35225 35-146).
T3 construct: also called Det-1 tagged human IL-13 (made in-house); not shown: det-1 tag
Kind of test: competition ELISA: inhibition of det-1 tagged human IL-13 binding to human IL-13Rα1-Fc.

For test [5], the target named is T4, 16mer biotinylated human IL-13 peptide number 24 (human, N-terminal biotin; C-terminal amide).
T4 construct: format Biotin-SGSG-PEPTIDE-amide; also called Peptide 24
T4 peptide: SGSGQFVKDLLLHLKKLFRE
Kind of test: BIAcore analysis 3, antibody over biotinylated peptide on SA chip. As for the experimental part:
Completed for the 16mer biotinylated human IL-13 peptide number 24 (identified as the linear binding epitope for parental mAb 6A1, see section 6.7). Note that the absolute KD values obtained for binding to peptide ligands are often quite different to those seen for binding to whole protein targets.
The kinetics analysis was performed on a Biacore 3000 machine using direct binding of antibody to immobilised IL-13 peptide. Briefly, IL-13 biotinylated peptide was captured using a Biacore SA (strepavidin) Biosensor chip. The antibodies were then passed over the sensor surface at various concentrations. The subsequent binding curves were analysed with Biacore analysis software BIAeval 4.1 to determine kinetics. The experiment was carried out using Biacore HBS-EP buffer
(In general: SPR reads the build-up and loss of mass on a sensor chip optically.)

Test [6] deals with T5, native (PBMC derived) human IL-13 (human, UniProt P35225 35-146, limits assumed).
T5 construct: IL-13 in supernatant of stimulated human CD4+ Th2 cells; also called native human IL-13; Native IL-13
Kind of test: ELISA on Th2 cell supernatant read against a standard curve.

The target in test [7] is T3, E. coli-expressed recombinant det-1 …. Kind of test: competition ELISA: inhibition of det-1 tagged human IL-13 binding to human IL-13Rα2-Fc.
Test [8] has as its target mammalian-expressed (CHO cell) human IL-13 (human, UniProt P35225 35-146, limits assumed). Kind of test: cell-based or functional assay.
The target of test [9] is T1, E. coli-expressed recombinant …. Kind of test: cell-based or functional assay.
The target in test [10] is E. coli-expressed recombinant Q130 human IL-13 (human, UniProt P35225 35-146, limits assumed). Kind of test: cell-based or functional assay.
In test [11] the target is T2, E. coli-expressed recombinant human …. Kind of test: cell-based or functional assay.
The target of test [12] is T6, alanine scanning peptide 1 (parental sequence peptide) (human, N-terminal biotin).
T6 construct: also called parental peptide
T6 peptide: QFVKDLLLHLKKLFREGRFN
Kind of test: alanine scanning peptide ELISA, n=2. An excerpt:
(§4) An ELISA method was used to detect binding of immobilised biotinylated peptide to the parental mAb 6A1 and L1+A1.
(§5) This was to determine if there was any major plate-to-plate variation and in both cases, there was no apparent variation.

Test [13] has as its target T7, alanine scanning peptide 62 (human, N-terminal biotin).
T7 peptide: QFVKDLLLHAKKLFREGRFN
Kind of test: alanine scanning peptide ELISA, n=2.
Description: as §4, §5

Test [14] addresses T8, alanine scanning peptide 63 (human, N-terminal biotin).
T8 construct: the entry already carries the change; also called K103A peptide
T8 peptide: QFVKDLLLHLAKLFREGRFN
Kind of test: alanine scanning peptide ELISA, n=2.
Description: as §4, §5

For test [15], the target named is T9, alanine scanning peptide 64 (human, N-terminal biotin).
T9 construct: the entry already carries the change; also called K104A peptide
T9 peptide: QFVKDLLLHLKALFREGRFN
Kind of test: alanine scanning peptide ELISA, n=2.
Description: as §4, §5

Test [16] addresses T10, alanine scanning peptide 65 (human, N-terminal biotin).
T10 construct: the entry already carries the change; also called L105A peptide
T10 peptide: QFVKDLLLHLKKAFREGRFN
Kind of test: alanine scanning peptide ELISA, n=2.
Description: as §4, §5

For test [17], the target named is T11, alanine scanning peptide 66 (human, N-terminal biotin).
T11 construct: the entry already carries the change; also called F106A peptide
T11 peptide: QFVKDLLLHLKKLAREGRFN
Kind of test: alanine scanning peptide ELISA, n=2.
Description: as §4, §5

As usually defined, the Kd is the constant that tells how readily two partners part at equilibrium. What is called koff is the first-order rate constant of dissociation. For orientation: kon means the second-order rate constant of association. For orientation: EC50 means the concentration that produces a half-maximal response. In general, IC50 refers to the midpoint of a concentration-inhibition curve.

T2 sequence (P35225 other isoform, or with tags, fused parts or gaps): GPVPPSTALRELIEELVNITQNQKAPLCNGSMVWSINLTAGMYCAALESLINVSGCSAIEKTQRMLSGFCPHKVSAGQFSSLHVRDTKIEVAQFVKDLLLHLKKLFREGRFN
T3 sequence (P35225 other isoform, or with tags, fused parts or gaps): as above
T5 sequence (P35225 other isoform, or with tags, fused parts or gaps limits assumed): as the sequence (P35225 other isoform, or with tags, fused parts or gaps) above
mammalian-expressed (CHO cell) human IL-13, sequence (P35225 other isoform, or with tags, fused parts or gaps limits assumed): as the sequence (P35225 other isoform, or with tags, fused parts or gaps) above
E. coli-expressed recombinant Q130 human IL-13, sequence (P35225 35-146 limits assumed): as the sequence (P35225 other isoform, or with tags, fused parts or gaps) above, with R110Q counted along it

B1: monoclonal antibody 6A1 (antibody, IgG1, V domains shown)
VH: EIQLQQSVAELVRPGASVRLSCTASGFYIKDTYMHWVIQRPEQGLEWIGTIDPANGNTKYVPKFQGKATITADTSSNTAYLRLSSLTSEDTAIYYCARSIYDDYHYDDYYAMDYWGQGTSVTVSS
VL: DVLMTQTPLSLPVSLGDQASISCRSSQNIVHINGNTYLEWYLQKPGQSPKLLIYKISDRFSGVPDRFSGSGSGTDFTLKISRVEAEDLGVYYCFQGSHVPWTFGGGTKLEIK
notes: also called 6A1 parental mAb; parental mouse mAb 6A1
B1: the Kd was 0.061 nM in [1], 0.035 nM in [2] and 3.11 nM in test [5]. Further, the koff in test [1] came out at 5.6e-05 s⁻¹; in test [2], 6.78e-05 s⁻¹; in [5], 0.000915 s⁻¹. Moreover, the kon in test [1] worked out at 914000 M⁻¹ s⁻¹; in [2], 1.96e+06 M⁻¹ s⁻¹; in test [5] it was 295000 M⁻¹ s⁻¹. Moreover, in [3], the EC50 came to 0.039 µg/mL. Further, the figures for the IC50 in test [4] and in test [7] were 0.039 µg/mL and 0.02 µg/mL, respectively. Further, the “Native IL-13 (ng/ml) detected in Th2 supernatant” value in test [6] was 22.5 ng/mL. Also, the “Mean ND50 for 2 assays” value came to 0.44 µg/mL in test [8], 0.078 µg/mL in test [9], 0.213 µg/mL in test [10] and 0.193 µg/mL in [11]. Also, the “Average A490” value in [12] came out at 3.54 A490; in test [13], 3.49 A490; in test [14], 3.28 A490; in [15], 1.47 A490; in test [16], 3.85 A490; in test [17], 3.6 A490.

B2: L1+A1 (antibody, human IgG1, kappa, V domains shown)
VH: QVQLVQSGAEVKKPGSSVKVSCKASGFYIKDTYMHWVRQAPGQGLEWMGTIDPANGNTKYVPKFQGRVTITADESTSTAYMELSSLRSEDTAVYYCARSIYDDYHYDDYYAMDYWGQGTLVTVSS
VL: DIVMTQSPLSLPVTPGEPASISCRSSQNIVHINGNTYLEWYLQKPGQSPRLLIYKISDRFSGVPDRFSGSGSGTDFTLKISRVEADDVGIYYCFQGSHVPWTFGQGTKLEIKR
notes: Humanised 6A1, VH construct A1 and VL construct L1, human gamma1 wild type / kappa constant regions; also called A1L1; humanised anti-IL-13 mAb L1+A1
As for B2, the results for the Kd in test [1], in [2] and in test [5] were 0.035 nM, 0.3 nM and 9.03 nM, respectively. The off-rate (koff) in [1] stood at 1.55e-05 s⁻¹; in test [2], 0.000155 s⁻¹; in [5], 0.0017 s⁻¹. For the same molecule, the figures for the kon in [1], in test [2] and in test [5] were 446000 M⁻¹ s⁻¹, 507000 M⁻¹ s⁻¹ and 195000 M⁻¹ s⁻¹, respectively. Also, the EC50 in test [3] was determined as 0.021 µg/mL. Also, the values for the IC50 in [4] and in test [7] were 0.044 µg/mL and 0.113 µg/mL, respectively. The “Native IL-13 (ng/ml) detected in Th2 supernatant” value in test [6] worked out at 25.1 ng/mL. Further, the “Mean ND50 for 2 assays” value turned out to be 0.975 µg/mL in test [8], 0.078 µg/mL in [9], 0.438 µg/mL in test [10] and 0.428 µg/mL in test [11]. Further, the “Average A490” value in [12] was 2.85 A490; in test [13] it was 2.83 A490; in [14], 2.65 A490; in test [15], 1.82 A490; in [16] it was 3.02 A490; in [17], 2.84 A490.

(Values after patent US20110243928A1 (published 2011).)
